The values below come from patent US20220403048A1, “BINDING MOLECULES TO ARGINASE II [ARG2]” (Cancer Research Technology Limited, priority 2019, published 2022).

The target of this test is T1, human ARG2 (Homo sapiens, UniProt P78540, E275H/R327K).
T1 construct: His10 (after a GGG linker) (C); made in house; host or cells: E. coli BL21 (DE3)
T1 sequence (P78540 23-354 E275H/R327K): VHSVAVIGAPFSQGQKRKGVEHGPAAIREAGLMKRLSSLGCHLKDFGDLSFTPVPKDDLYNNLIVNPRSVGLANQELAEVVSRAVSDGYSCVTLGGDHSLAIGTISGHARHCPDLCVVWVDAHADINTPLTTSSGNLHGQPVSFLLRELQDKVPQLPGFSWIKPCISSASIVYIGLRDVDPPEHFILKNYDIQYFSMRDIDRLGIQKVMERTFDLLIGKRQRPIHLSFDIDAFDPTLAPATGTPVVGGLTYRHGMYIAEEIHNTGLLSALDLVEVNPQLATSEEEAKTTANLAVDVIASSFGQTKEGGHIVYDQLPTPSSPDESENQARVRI
As to the kind of experiment: Bio-Layer Interferometry (OctetRED) binding kinetics, human ARG2. An excerpt: The OctetRED (Pall ForteBio) instrument was used to assess the kinetic parameters of the interactions between C0020187 and recombinantly produced human ARG2, cynomolgus ARG2 and human ARG1. The Octet biosensor uses an optical analytical technique that analyses the interference pattern of white light reflected from two surfaces: a layer of immobilised protein on the sensor tip, and an internal reference layer. Any changes in binding at the biosensor tip result in a shift in interference pattern, which can be measured in real time. Molecules associating with or dissociating from ligands at the biosensor tip shift the interference pattern and generate a response on the Octet system which is recorded by the acquisition software.
Typically, a defined concentration of the analyte species is brought into contact with the coupled ligand and any binding is detected as an increased in signal (association phase). This is followed by a period of buffer rinse, during which dissociation of the analyte species from the surface immobilised ligand can be observed as a decrease in signal (dissociation phase). Repetition of this with a range of analyte concentrations provides data for the analysis of binding kinetics.
An Octet Kinetics Buffer (PBS containing 0.01% BSA and 0.002% Tween20) is typically used as the diluent buffer for the analyte samples and as the flow buffer during the dissociation phase. The experimental data is recorded over time as shift in interference pattern (nm) over time, which is directly proportional to the optical thickness at the biosensor tip, which in turn is an approximate measure of the mass of analyte bound. The proprietary Octet Data Analysis software package can then be used to process data and fit binding models to the data sets. Returned association (ka, M^−1 s^−1) and dissociation (kd, s^−1) rate constants allow calculation of dissociation (KD, M) affinity constants.
The affinity of binding between the Fab of C0020187 and human ARG2, cynomolgus ARG2 and human ARG1 was estimated using assays in which the biotinylated ARG antigen was captured on a streptavidin sensor tip. A fresh sensor tip was used for each measurement and no regeneration was used. A series of dilutions of the C0020187 Fab (3.25-240 nM) were individually placed in contact with the ligand surface for a sufficient amount of time to observe sensorgrams that could be fitted to an appropriate binding model with confidence (typically 5 minutes), followed by an appropriate length of dissociation time (typically 10 minutes). Blank reference (0 nM Fab) data were subtracted from each dataset to reduce the impact of any buffer artefacts or non-specific binding effects. An appropriate binding model was then fitted simultaneously to the data from each analyte titration using the Octet Evaluation software.
Example results for C0020187 are shown in Table 9, showing the association rate constants (ka), dissociation rate constants (kd) and dissociation constants (KD). These parameters were derived from a 1:1 binding fit to the data.
The affinities of the affinity-matured antibodies to human ARG2 were measured on the OctetRED system as described in section 1.15 using the streptavidin capture method. Typically, an analyte titration range of 1.8 to 120 nM was used.
The affinities of the second-generation antibodies to human ARG2 were measured on the OctetRED system. A screening assay which stably captures His-tagged ARG2 as the ligand on an anti-His surface was utilised to screen the second-generation candidates as Fabs at an analyte range of 1.8 to 120 nM, with an association time of 5 minutes and a dissociation time of 10 minutes. Sensors were regenerated using 10 mM glycine pH 1.5 after each cycle. Based on this assay, six candidates with estimated affinities in the sub-nanomolar range were identified, and they were further profiled using an extended assay which is more suitable for antibodies of high affinities. […]

The mark [1] stands for this setting: Fab as analyte, streptavidin capture, analyte 1.8 to 120 nM, affinity-matured antibodies.
[2] abbreviates: second-generation Fab, extended assay: association 10 min, dissociation 40 min, 0.47 to 30 nM, streptavidin surface with bio-ARG2.

Where a chain is given by its changes, count along the chain named.

B1: C0021061: anti-ARG2 antibody, first generation lead, VH SEQ ID NO: 62, VL SEQ ID NO: 67 (antibody, listed as Homo sapiens, V domains shown)
VH: EVQLLESGGGLVQPGGSLRLSCAASGFTFSSYAMSWVRQAPGKGLEWVSAKPTDAGSTYYADSVKGRFTISRDNSKNTLYLQMNSLRAEDTAVYYCARLRADLGLYMDLWGRGTLVTVSS
VL: QSVLTQPPSVSAAPGQKVTISCSGSSSNIGNHYVSWYQQLPGTAPKLLIYNTVYPKSGIPDRFSGSKSGTSATLGITGLQTGDEADYYCGTWDSSLSALVFGGGTKLTVL
modifications: C0021061
As to B1, under setting [1], the ka was found to be 271000 M⁻¹ s⁻¹ and the kd stood at 0.000351 s⁻¹.

B2: C0021092: anti-ARG2 antibody, VH SEQ ID NO: 92, VL SEQ ID NO: 97 (antibody, listed as Homo sapiens, V domains shown)
VH: B1 VH with S31R, K51H, P52T, T53H, D54S, A55P
VL: B1 VL with T52S, Y54A, P55R, K56P
modifications: C0021092
Under setting [1], B2 had a ka of 280000 M⁻¹ s⁻¹ and a kd of 0.000755 s⁻¹.

B3: C0021065: anti-ARG2 antibody, VH SEQ ID NO: 72, VL SEQ ID NO: 77 (antibody, listed as Homo sapiens, V domains shown)
VH: EVQLLESGGGLVQPGGSLRLSCAASGFTFSSYAMSWVRQAPGKGPEWVSAISGFSPYYADSVKGRFTISRDNSRNTLYLQMNSLRAEDTAVYYCARLRADLGLYMDLWGRGTLVTVSS
VL: B1 VL with N51D, V53D, Y54H, P55M, K56A
modifications: C0021065
Under setting [1], B3 registered a ka of 409000 M⁻¹ s⁻¹ and a kd of 0.000665 s⁻¹.

B4: C0021158 IgG: anti-ARG2 antibody, VH SEQ ID NO: 282, VL SEQ ID NO: 287; IgG and Fab versions carry these sequences (antibody, listed as Homo sapiens, V domains shown)
VH: EVQLLESGGGLVQPGGSLRLSCAASGFTFRYEVAAWVRQAPGKGLEWVSAISGPIPKGYYADSVKGRFTISRDNSKNTLYLQMNSLRAEDTAVYYCARLRADLGLYMDLWGRGTLVTVSS
VL: QSVLTQPPSVSAAPGQKVTISCSGSSSNIGNHYVSWYQQLPGTAPKLLIYDNSERTAGVPDRFSGSKSGTSATLGITGLQTGDEADYYCGTWDELTSNLVFGGGTKLTVL
modifications: C0021158 IgG
In the case of B4, under setting [2], the ka was found to be 262000 M⁻¹ s⁻¹ and the kd came out at 4.54e-05 s⁻¹.

B5: C0021022: anti-ARG2 antibody, VH SEQ ID NO: 42, VL SEQ ID NO: 47 (antibody, listed as Homo sapiens, V domains shown)
VH: B3 VH with R74K
VL: B1 VL with N51D, T52N, V53S, Y54E, P55R, K56P
modifications: C0021022
In the case of B5, under setting [1], the ka stood at 412000 M⁻¹ s⁻¹ and the kd came to 0.00112 s⁻¹.

B6: C0021180: anti-ARG2 antibody, VH SEQ ID NO: 332, VL SEQ ID NO: 337 (antibody, listed as Homo sapiens, V domains shown)
VH: B4 VH
VL: QSVLTQPPTVSAAPGRKVTISCSGSSSNIGDHHVSWYQQLPGAAPKLLIYDTDHMASGIPDRFSGSRSGTSATLGITGLQTGDEADYYCGTWDSSLSALVFGGGTKLTVL
modifications: C0021180
For B6, under setting [2], the ka is 278000 M⁻¹ s⁻¹ and the kd amounted to 0.000122 s⁻¹.

B7: C0021177: anti-ARG2 antibody, VH SEQ ID NO: 322, VL SEQ ID NO: 327 (antibody, listed as Homo sapiens, V domains shown)
VH: B4 VH with I55A
VL: B4 VL with V3E, S9T, V10A, N52T, S53T, E54V, R55L, T56S, A57S, V59I
modifications: C0021177
Under setting [2], B7 gave a ka of 202000 M⁻¹ s⁻¹ and a kd of 3.51e-05 s⁻¹.

B8: C0021133: anti-ARG2 antibody, VH SEQ ID NO: 192, VL SEQ ID NO: 197 (antibody, listed as Homo sapiens, V domains shown)
VH: B4 VH with E32D, V33H, A34H, A35V, P54S, I55G, P56G, K57S, G58T
VL: B4 VL with I20V, N52T, S53T, E54V, R55L, T56S, A57S, V59I
modifications: C0021133
As to B8, under setting [1], the ka turned out to be 219000 M⁻¹ s⁻¹ and the kd came to 0.000449 s⁻¹.

B9: C0021139: anti-ARG2 antibody, VH SEQ ID NO: 212, VL SEQ ID NO: 217 (antibody, listed as Homo sapiens, V domains shown)
VH: B4 VH with R30Q, E32D, V33Y, A34Q, A35V, P54S, I55G, P56G, K57S, G58T
VL: B4 VL with A57S, V59I
modifications: C0021139
On to B9, for which, under setting [1], the ka was 198000 M⁻¹ s⁻¹ and the kd amounted to 0.000871 s⁻¹.

B10: C0021181: anti-ARG2 antibody, VH SEQ ID NO: 342, VL SEQ ID NO: 347 (antibody, listed as Homo sapiens, V domains shown)
VH: EVQLLESGGGLVRPGGSLRLSCAASEFTFRYDYHVWVRQAPGKGLEWVSAISGSGGSTYYADSVKSRFTISRDNSKNTLYLQMNSLRAEDTAVYYCARLRADLGLYMDLWGRGTLVTVSS
VL: B4 VL with T19A, I20V, N31S, A57S, V59I, K106R
modifications: C0021181
For B10, under setting [2], the ka was 145000 M⁻¹ s⁻¹ and the kd stood at 4.17e-05 s⁻¹.
